The data set concerns MS2 coat protein. The experiment in a line: apparent KD of MS2 coat protein; designed switch direction (-1 OFF switch, 1 ON switch): -1; higher = weaker reporter binding. The method in brief: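 Transcription of designed RNA switches on Illumina chips was done by stalled E. coli RNA polymerase. SNAP-549-labelled MS2 coat protein was then titrated in doubling steps from 0.7 or 1.5 nM to 3 µM, with steps of 0.8–1.5 h at the lowest and 10–20 min at the highest concentration. The per-design median over clusters of curve-fitted normalised fluorescence is reported as apparent KD.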

The mark [1] stands for this setting: input ligand: microRNA oligo, concentration not stated.
[2] abbreviates: Eterna round: R95, input ligand: microRNA oligo, concentration not stated.

Regarding “GCACGGAGUGUAGGAUAUCUGUGCGAUUAGCUCAGAGAAGGACACAUGAGGAUCACCCAUGUGUAACUCAACAUUAAUCCGUGC [Eli exng1 - 074] (Eterna round: R96, puzzle: Exclusion NG 1)”, the “apparent KD of MS2 coat protein” value was 9.63 nM (input ligand: FMN 200 uM), 7.59 nM under setting [1] and 10.6 nM (input ligand: none).
Consider “GCACGGAGUGUAGGAUAUCUGUGCGAUUAGCUCAGAGAAGGGCACAUGAGGAUCACCCAUGUGUAUAAACACAAUAAUCCGUGC [Eli exng1 - 069] (Eterna round: R96, puzzle: Exclusion NG 1)”, for which the “apparent KD of MS2 coat protein” value by setting is: (input ligand: FMN 200 uM) 12.8 nM; under setting [1], 7.91 nM; (input ligand: none) 14.1 nM.
As to “GCACGGUAAGUGAGGAUAUACCUCUGGAUACAGAGGUAGAAGGCACAUGAGGAUCACCCAUGUCCUAGCCGUGC [Fiskers BMX 4 - 88] (puzzle: Brourd's mod of Exclusion 4)”, the “apparent KD of MS2 coat protein” value under setting [2] came out at 32.9 nM.
As to “GCACGGUAAGUGAGGAUAUACCUCUGGAUACAGAGGUAGAAGGCACAUGAGGAUCACCCAUGUCUAAGCCGUGC [Fiskers BMX 4 - 83] (puzzle: Brourd's mod of Exclusion 4)”, the “apparent KD of MS2 coat protein” value under setting [2] is 14.7 nM.
Turning to “GCACGGUAAGUGAGGAUAUACCUCUGGAUACAGAGGUAGAAGGCACAUGAGGAUCACCCAUGUUCAAGCCGUGC [Fiskers BMX 4 - 85] (puzzle: Brourd's mod of Exclusion 4)”, the “apparent KD of MS2 coat protein” value (Eterna round: R95, input ligand: FMN 200 uM) is 14.5 nM; the “apparent KD of MS2 coat protein” value under setting [2] is 13.2 nM; the “apparent KD of MS2 coat protein” value (Eterna round: R95, input ligand: none) was 14.4 nM.
Consider “GCACGGUAAGUGAGGAUAUACCUCUGGAUACAGAGGUAGAAGGCACAUGAGGAUCACCCAUGUUCCAGCCGUGC [Fiskers BMX 4 - 86] (puzzle: Brourd's mod of Exclusion 4)”, for which the “apparent KD of MS2 coat protein” value under setting [2] is 14.7 nM.
Consider “GCACGGUUGCUAGGAUAUCCUUGCGAUUAGCAAGGAGAAGGAGCACAUGAGGAUCACCCAUGUACCUCAAUAAUCCAUCCGUGC [Eli exng1 - 029] (Eterna round: R96, puzzle: Exclusion NG 1)”, for which the “apparent KD of MS2 coat protein” value under setting [1] came to 11 nM.
On to “GCACGGUUGGUAGGAUAUCCUUGCGAUUAGCAAGGAGAAGGACCACAUGAGGAUCACCCAUGUACCUCAAUUAUCCUUCCGUGC [Eli exng1 - 025] (Eterna round: R96, puzzle: Exclusion NG 1)”, for which the “apparent KD of MS2 coat protein” value is, setting by setting: (input ligand: FMN 200 uM) 13.7 nM; under setting [1], 10.9 nM; (input ligand: none) 14.9 nM.
The matching figures for “GCACUCUUGUGAGGAUAUCGUUAAGGGACUUAACGAGAAGGUACAUGAGGAUCACCCAUGUGGAUCCUCCCGUUUGGAUCACUU [Eternabot solution 3] (Eterna round: R96, puzzle: Exclusion NG 1)”: 177 nM, 103 nM and 112 nM.
As for “GCACUGACAGGAUAUACAUGAGGAUCACCCAUGUGACCCUUGGAGUACUCGCGUACUCGUAGAAGGGUCUGUGC [Omei Ex3 Model Bachelor's Dilema v37] (Eterna round: R97, puzzle: Exclusion 3)”, the “apparent KD of MS2 coat protein” value by setting is: (input ligand: FMN 200 uM) 95.8 nM; (input ligand: none) 35.9 nM.
In the case of “GCACUGCGAGGAUAUACAUGAGGAUCACCCAUGUGUCGGCAGACAUGGUUAAUCUAAGGUAGAAGGCGCGUAAA [JR_Ex3_Sub004] (Eterna round: R97, puzzle: Exclusion 3)”, the “apparent KD of MS2 coat protein” value is, setting by setting: (input ligand: FMN 200 uM) 16.3 nM; (input ligand: none) 993 nM.
For “GCAGAGGUAGUGAGGAUAUGCUCUACCUCGGUAGAGCAGAAGGCACAUGAGGAUCACCCAUGUGAUUCUUCUGC [Omei Ex4B B9] (Eterna round: R97, puzzle: Brourd's mod of Exclusion 4)”, the “apparent KD of MS2 coat protein” value reads like this: (input ligand: FMN 200 uM) 15 nM; (input ligand: none) 13.2 nM.

Source of the values: the supplement of paper PMC9170038.
